Target: revised CpaD from Aspergillus flavus NRRL3357 (full length, with the 43 N-terminal residues added) (Aspergillus flavus NRRL3357)
Experiment: SEC

“revised CpaD from Aspergillus flavus NRRL3357 (full length, with the 43 N-terminal residues added) (enzyme)” gave a stoichiometry N of 2.

— publication PMC2783589
